Positions count from the first letter of the chain named. Values belong to the binder of their own block, whether it stands above or below them.
Biological target: T1, KRAS G13D (G13D-RT6) peptide on HLA-DQA1*05:01 / HLA-DQB1*03:01 (human)
T1 chain: YKLVVVGAGDVGKSAL
Assay: NFAT-luciferase; Jurkat-NFAT-Luc with the TCR and Lovo-DPA0301:DPB0501 cells loaded with G13D-RT6; against wild-type B8.2.4 TCR; full-length, on cells
Settings: chains Valpha:Vbeta

- TCR Mut RLU/WT RLU: 0.73
B4: B8.2.4 TCR mutant β98P-G (protein)
chain 1: AQKITQTQPGMFVQEKEAVTLDCTYDTSDPSYGLFWYKQPSSGEMIFLIYQGSYDQQNATEGRYSLNFQKARKSANLVISASQLGDSAMYFCAMRERTGTASKLTFGTGTRLQVTL
chain 2: DVKVTQSSRYLVKRTGEKVFLECVQDMDHENMFWYRQDPGLGLRLIYFSYDVKMKEKGDIPEGYSVSREKKERFSLILESASTNQTSMYLCASSQTVGPQHFGDGTRLSIL

- TCR Mut RLU/WT RLU: 0.63
B7: B8.2.4 TCR mutant β98P-V (protein)
chain 1: B4 chain 1
chain 2: B4 chain 2 with G98V

- TCR Mut RLU/WT RLU: 0.94
B8: B8.2.4 TCR mutant β98P-S (protein)
chain 1: B4 chain 1
chain 2: B4 chain 2 with G98S

- TCR Mut RLU/WT RLU: 0.83
B9: B8.2.4 TCR mutant β98P-M (protein)
chain 1: B4 chain 1
chain 2: B4 chain 2 with G98M

- TCR Mut RLU/WT RLU: 0.81
B12: B8.2.4 TCR mutant β98P-W (protein)
chain 1: B4 chain 1
chain 2: B4 chain 2 with G98W

- TCR Mut RLU/WT RLU: 0.8
B15: B8.2.4 TCR mutant β98P-D (protein)
chain 1: B4 chain 1
chain 2: B4 chain 2 with G98D

- TCR Mut RLU/WT RLU: 0.73
B17: B8.2.4 TCR mutant β98P-R (protein)
chain 1: B4 chain 1
chain 2: B4 chain 2 with G98R

- TCR Mut RLU/WT RLU: 0.67
B22: B8.2.4 TCR mutant β98P-L (protein)
chain 1: B4 chain 1
chain 2: B4 chain 2 with G98L

- TCR Mut RLU/WT RLU: 1.11
B24: B8.2.4 TCR mutant β98P-C (protein)
chain 1: B4 chain 1
chain 2: B4 chain 2 with G98C

- TCR Mut RLU/WT RLU: 0.96
B25: B8.2.4 TCR mutant β98P-F (protein)
chain 1: B4 chain 1
chain 2: B4 chain 2 with G98F

- TCR Mut RLU/WT RLU: 0.6
B26: B8.2.4 TCR mutant β98P-H (protein)
chain 1: B4 chain 1
chain 2: B4 chain 2 with G98H

Further lines, the binder ahead of its results:

B1: B8.2.4 TCR mutant β95Q-A (protein)
chain 1: B4 chain 1
chain 2: B4 chain 2 with Q95A, G98P
- TCR Mut RLU/WT RLU: 0.86

B2: B8.2.4 TCR mutant β95Q-Y (protein)
chain 1: B4 chain 1
chain 2: B4 chain 2 with Q95Y, G98P
- TCR Mut RLU/WT RLU: 0.92

B3: B8.2.4 TCR mutant β95Q-H (protein)
chain 1: B4 chain 1
chain 2: B4 chain 2 with Q95H, G98P
- TCR Mut RLU/WT RLU: 0.68

B5: B8.2.4 TCR mutant β95Q-E (protein)
chain 1: B4 chain 1
chain 2: B4 chain 2 with Q95E, G98P
- TCR Mut RLU/WT RLU: 0.81

B6: B8.2.4 TCR mutant β95Q-D (protein)
chain 1: B4 chain 1
chain 2: B4 chain 2 with Q95D, G98P
- TCR Mut RLU/WT RLU: 0.6

B10: B8.2.4 TCR mutant β97V-T (protein)
chain 1: B4 chain 1
chain 2: B4 chain 2 with V97T, G98P
- TCR Mut RLU/WT RLU: 0.98

B11: B8.2.4 TCR mutant β95Q-M (protein)
chain 1: B4 chain 1
chain 2: B4 chain 2 with Q95M, G98P
- TCR Mut RLU/WT RLU: 0.99

B13: B8.2.4 TCR mutant β95Q-I (protein)
chain 1: B4 chain 1
chain 2: B4 chain 2 with Q95I, G98P
- TCR Mut RLU/WT RLU: 0.74

B14: B8.2.4 TCR mutant β95Q-T (protein)
chain 1: B4 chain 1
chain 2: B4 chain 2 with Q95T, G98P
- TCR Mut RLU/WT RLU: 0.59

B16: B8.2.4 TCR mutant β97V-I (protein)
chain 1: B4 chain 1
chain 2: B4 chain 2 with V97I, G98P
- TCR Mut RLU/WT RLU: 0.61

B18: B8.2.4 TCR mutant β95Q-V (protein)
chain 1: B4 chain 1
chain 2: B4 chain 2 with Q95V, G98P
- TCR Mut RLU/WT RLU: 0.76

B19: B8.2.4 TCR mutant β95Q-N (protein)
chain 1: B4 chain 1
chain 2: B4 chain 2 with Q95N, G98P
- TCR Mut RLU/WT RLU: 0.6

B20: B8.2.4 TCR mutant β95Q-G (protein)
chain 1: B4 chain 1
chain 2: B4 chain 2 with Q95G, G98P
- TCR Mut RLU/WT RLU: 1.03

B21: B8.2.4 TCR mutant β95Q-C (protein)
chain 1: B4 chain 1
chain 2: B4 chain 2 with Q95C, G98P
- TCR Mut RLU/WT RLU: 1.14

B23: B8.2.4 TCR mutant β97V-S (protein)
chain 1: B4 chain 1
chain 2: B4 chain 2 with V97S, G98P
- TCR Mut RLU/WT RLU: 0.78

B27: B8.2.4 TCR mutant β95Q-W (protein)
chain 1: B4 chain 1
chain 2: B4 chain 2 with Q95W, G98P
- TCR Mut RLU/WT RLU: 0.88
